From publication PMC3137072

Columns and labels:
[1] = target: microtubules (polymerized tubulin) (UniProt Q6B856)
[2] = target: filamentous actin (F-actin), non-muscle actin (UniProt P60709)

Sequence of microtubules (polymerized tubulin) (Q6B856 whole entry, looked up): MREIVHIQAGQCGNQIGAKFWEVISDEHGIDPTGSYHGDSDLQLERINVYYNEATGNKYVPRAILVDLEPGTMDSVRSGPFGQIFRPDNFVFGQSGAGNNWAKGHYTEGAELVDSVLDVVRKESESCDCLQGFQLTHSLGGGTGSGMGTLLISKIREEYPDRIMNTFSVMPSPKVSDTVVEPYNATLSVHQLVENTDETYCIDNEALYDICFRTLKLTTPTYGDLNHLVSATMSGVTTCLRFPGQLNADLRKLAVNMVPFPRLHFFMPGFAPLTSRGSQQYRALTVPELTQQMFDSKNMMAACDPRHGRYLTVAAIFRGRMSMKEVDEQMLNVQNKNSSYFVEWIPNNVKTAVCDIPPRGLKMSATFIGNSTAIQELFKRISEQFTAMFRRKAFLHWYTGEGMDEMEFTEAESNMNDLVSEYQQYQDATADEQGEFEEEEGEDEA
Sequence of G2L3-ΔGAR (GAS2-like 3 lacking the GAR domain), GFP-tagged (Q86XJ1 whole entry, stated change not applied, the tested form may be a part): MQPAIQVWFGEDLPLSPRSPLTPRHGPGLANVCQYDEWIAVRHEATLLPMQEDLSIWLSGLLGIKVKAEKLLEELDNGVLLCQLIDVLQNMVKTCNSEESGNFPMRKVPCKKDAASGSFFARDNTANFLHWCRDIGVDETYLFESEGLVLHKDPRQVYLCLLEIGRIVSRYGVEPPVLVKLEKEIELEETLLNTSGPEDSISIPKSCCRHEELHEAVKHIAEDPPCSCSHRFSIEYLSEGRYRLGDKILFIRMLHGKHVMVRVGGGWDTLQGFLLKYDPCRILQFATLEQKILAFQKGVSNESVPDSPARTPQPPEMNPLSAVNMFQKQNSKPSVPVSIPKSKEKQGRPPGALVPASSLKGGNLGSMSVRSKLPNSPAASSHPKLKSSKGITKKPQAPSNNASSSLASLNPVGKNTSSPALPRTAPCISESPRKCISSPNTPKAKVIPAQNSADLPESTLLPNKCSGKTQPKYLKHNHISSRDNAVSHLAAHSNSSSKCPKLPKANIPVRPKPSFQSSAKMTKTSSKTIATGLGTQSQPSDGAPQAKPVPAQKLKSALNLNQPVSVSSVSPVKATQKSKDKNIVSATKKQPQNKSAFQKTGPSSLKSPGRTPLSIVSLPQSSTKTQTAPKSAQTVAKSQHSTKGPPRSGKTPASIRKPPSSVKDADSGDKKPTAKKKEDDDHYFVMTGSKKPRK
Sequence of G2L3-CH (calponin homology domain of GAS2-like 3) (Q86XJ1 48-168): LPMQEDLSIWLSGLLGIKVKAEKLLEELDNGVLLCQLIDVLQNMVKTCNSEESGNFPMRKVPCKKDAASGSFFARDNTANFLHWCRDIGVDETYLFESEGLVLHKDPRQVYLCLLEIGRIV

With “G2L3-ΔCH (GAS2-like 3 lacking the CH domain), GFP-tagged (domain or fragment)” as the substance, how does the FRAP, t½ of recovery of GFP-tagged G2L3-ΔCH on MTs in NIH3T3 cells [1] read?
The FRAP, t½ of recovery of GFP-tagged G2L3-ΔCH on MTs in NIH3T3 cells was 15.3 s.

With “G2L3-CH (calponin homology domain of GAS2-like 3) (from UniProt Q86XJ1 48-168) (domain or fragment)” as the substance, how does the FRAP, t½ of recovery of GFP-tagged G2L3-CH on actin filaments in NIH3T3 cells [2] read?
The FRAP, t½ of recovery of GFP-tagged G2L3-CH on actin filaments in NIH3T3 cells was 28.5 s.

Which FRAP, t½ of recovery of GFP-tagged G2L3-ΔGAR on MTs in NIH3T3 cells [1] does the source give for “G2L3-ΔGAR (GAS2-like 3 lacking the GAR domain), GFP-tagged (from UniProt Q86XJ1 1-694) (natural protein)” here?
The FRAP, t½ of recovery of GFP-tagged G2L3-ΔGAR on MTs in NIH3T3 cells was 6 s.

With “G2L3-C-term (C terminus of GAS2-like 3) (domain or fragment)” as the substance, how does the FRAP, t½ of recovery of GFP-tagged G2L3-C-term on MTs in NIH3T3 cells [1] read?
Its FRAP, t½ of recovery of GFP-tagged G2L3-C-term on MTs in NIH3T3 cells is 3.9 s.
